Laboratory results: patent US20200069794A1

Legend:
[1] = molecular target: human metapneumovirus (hMPV) fusion (F) protein (Strain: A/TN92-4) (human metapneumovirus) (UniProt Q6WB98); assay: flow cytometry, fluorescent staining of Hela cells transfected with hMPV/hPIV3 mRNA constructs; MPE8 at 500 nM plus secondary antibody
[2] = molecular target: human metapneumovirus (hMPV) fusion (F) protein (Strain: A/TN92-4) (human metapneumovirus) (UniProt Q6WB98); assay: flow cytometry, fluorescent staining of Hela cells transfected with hMPV/hPIV3 mRNA constructs; secondary antibody only (control)

hMPV-F-specific antibodies MPE-8 (antibody)
Mean FL4-H [1]: 617000

secondary antibody (staining control, 'Secondary only')
Mean FL4-H [2]: 2160
